# Results reported in patent publication US20150329642A1 (Genmab, published 2015).
# Changes are numbered by the printed parent chain.
# B1: anti-c-Met HuMab 098 (IgG1) (antibody, V domains shown)
# VH: QVQLVQSGAEVKKPGASVKVSCKASGYTFTNFGISWVRQAPGQGLEWMGWISAFNGHTDYSQKVQGRVTMTTDTSTSTAYMELRSLRSDDTAVFYCARSHYYGSGSPFDYWGQGTLVTVSS
# VL: DIQMTQSPSSLSASVGDRVTITCRASQGISNWLAWYQQKPEKAPKSLIYAASSLQSGVPSRFSGSGSGTDFTLTISSLQPEDFATYYCHQYKSYPWTFGQGTKVEIK
# notes: also called TH1016-098; PC1016-098
# B2: anti-c-Met HuMab 045 (IgG1) (antibody, V domains shown)
# VH: EVQLLESGGGLVQPGGSLRLSCAASGFTFSSYAMSWVRQAPGKGLEWVSVISGSGGITYYADSVKGRFTISRDNSKNTLYLQMNSLRAEDTAVYYCARDRGWGSDYWGQGTLVTVSS
# VL: EIVLTQSPATLSLSPGERATLSCRASQSVSSYLAWYQQKPGQAPRLLIYDASNRATGIPARFSGSGSGTDFTLTISSLEPEDFAVYYCQQRSNWPFTFGPGTKVDIK
# notes: also called TH1016-045; PC1016-045
# B3: IgG1-1016-069 (antibody, V domains shown)
# VH: QVQLVQSGAEVKKPGASVKVSCETSGYTFTSYGISWVRQAPGHGLEWMGWISAYNGYTNYAQKLQGRVTMTTDTSTSTAYMELRSLRSDDTAVYYCARDLRGTNYFDYWGQGTLVTVSS
# VL: DIQMTQSPSSVSASVGDRVTITCRASQGISNWLAWFQHKPGKAPKLLIYAASSLLSGVPSRFSGSGSGTDFTLTISSLQPEDFATYYCQQANSFPITFGQGTRLEIK
# notes: also called clone 069; TH1016-069
# B4: anti-c-Met HuMab 181 (IgG1) (antibody, V domains shown)
# VH: B3 VH with E23K, T24A, H43Q, A53T, N104A
# VL: B3 VL with F36Y
# notes: also called TH1016-181; PC1016-181
# B5: anti-c-Met HuMab 035 (IgG1) (antibody, V domains shown)
# VH: EVQLVQSGAEVKKPGESLKISCKGSGYSFTSYWIGWVRQMPGKGLEWMGIIYPGDSDTRYSPSFQGQVTISADKSISTAYLQWNSLKASDTAMYYCARQEITGEFDYWGQGTLVTVSS
# VL: AIQLTQSPSSLSASVGDRVTITCRASQGISSALAWYQQKPGKAPKLLIYDASSLESGVPSRFSGSGSGTDFTLTISSLQPEDFATYYCQQFNSYPMYTFGQGTKLEIK
# notes: also called P1016-035; TH1016-035-D09
# Target: T1, cMetECDHis (human, UniProt P08581 25-932, limits assumed, biotinylated in the cross-block ELISA of Example 17)
# T1 construct: Expressed in HEK-293F cells; also called soluble cMetECDHis; biotinylated cMetECDHis
# Test: cross-block ELISA; competitor 181
# Protocol: (§1) First, the optimal coating concentrations of the tested anti-c-Met antibodies and the optimal cMetECDHis concentration were determined. Therefore, ELISA wells were coated overnight at 4° C. with anti-c-Met HuMabs serially diluted in PBS (8 μg/mL in 2-fold dilutions). Next, the ELISA wells were washed with PBST (PBS supplemented with 0.05% Tween-20 [Sigma-Aldrich, Zwijndrecht, The Netherlands]) and blocked for one hour at room temperature (RT) with PBSTC (PBST supplemented 2% [v/v] chicken serum [Gibco, Paisley, Scotland]). Subsequently, the ELISA wells were washed with PBST and incubated for one hour at RT with biotinylated cMetECDHis serially diluted in PBSTC (1 μg/mL in 2-fold dilutions). Unbound biotinylated cMetECDHis was washed away with PBST, and bound biotinylated cMetECDHis was incubated for one hour at RT with 0.1 μg/mL Streptavidin-poly-HRP (Sanquin, Amsterdam, The Netherlands) diluted in PBST.
# (§2) ELISA wells were coated with anti-c-Met antibody at a sub-optimal dose as described above. After blocking of the ELISA wells, they were incubated with the predetermined concentration of biotinylated cMetECDHis in the presence of an excess of anti-c-Met antibody. The reaction was developed as described above. Residual binding was expressed as a percentage relative to the binding observed in the absence of competitor antibody.
row,"residual binding, % of no competitor [%]",Binder
1,12,B1
2,99.4,B2
3,6.3,B3
4,3.6,B4
5,159,B5

# Target: T1, cMetECDHis
# Test: cross-block ELISA; competitor 068
# Protocol: as §1, §2
row,"residual binding, % of no competitor [%]",Binder
1,18,B1
2,113,B2
3,10.1,B3
4,6.5,B4
5,175,B5

# Target: T1, cMetECDHis
# Test: cross-block ELISA; competitor 064
# Protocol: as §1, §2
row,"residual binding, % of no competitor [%]",Binder
1,9.3,B1
2,104,B2
3,2.3,B3
4,2.1,B4
5,132,B5

# Target: T1, cMetECDHis
# Test: cross-block ELISA; competitor 005
# Protocol: as §1, §2
row,"residual binding, % of no competitor [%]",Binder
1,99.6,B1
2,111,B2
3,102,B3
4,95.9,B4
5,36.7,B5

# Target: T1, cMetECDHis
# Test: cross-block ELISA; competitor 022
# Protocol: as §1, §2
row,"residual binding, % of no competitor [%]",Binder
1,95.8,B1
2,105,B2
3,97.8,B3
4,92.5,B4
5,54.6,B5

# Target: T1, cMetECDHis
# Test: cross-block ELISA; competitor 006
# Protocol: as §1, §2
row,"residual binding, % of no competitor [%]",Binder
1,97.9,B1
2,111,B2
3,100,B3
4,93.7,B4
5,33,B5

# Target: T1, cMetECDHis
# Test: cross-block ELISA; competitor 098
# Protocol: as §1, §2
row,"residual binding, % of no competitor [%]",Binder
1,2.6,B1
2,76.4,B2
3,12.5,B3
4,5.1,B4
5,126,B5

# Target: T1, cMetECDHis
# Test: cross-block ELISA; competitor 045
# Protocol: as §1, §2
row,"residual binding, % of no competitor [%]",Binder
1,96.7,B1
2,21.3,B2
3,99.8,B3
4,96.8,B4
5,125,B5

# Target: T1, cMetECDHis
# Test: cross-block ELISA; competitor 058
# Protocol: as §1, §2
row,"residual binding, % of no competitor [%]",Binder
1,98.6,B1
2,115,B2
3,101,B3
4,98.9,B4
5,18.5,B5

# Target: T1, cMetECDHis
# Test: cross-block ELISA; competitor 069
# Protocol: as §1, §2
row,"residual binding, % of no competitor [%]",Binder
1,3.4,B1
2,97,B2
3,2.4,B3
4,2.2,B4
5,151,B5

# Target: T1, cMetECDHis
# Test: cross-block ELISA; competitor G11-HZ
# Protocol: as §1, §2
row,"residual binding, % of no competitor [%]",Binder
1,99.6,B1
2,99.3,B2
3,110,B3
4,98.7,B4
5,7.8,B5

# Target: T1, cMetECDHis
# Test: cross-block ELISA; competitor 5D5
# Protocol: as §1, §2
row,"residual binding, % of no competitor [%]",Binder
1,94.9,B1
2,27.8,B2
3,99.4,B3
4,94.2,B4
5,25.5,B5

# Target: T1, cMetECDHis
# Test: cross-block ELISA; competitor 035
# Protocol: as §1, §2
row,"residual binding, % of no competitor [%]",Binder
1,89.4,B1
2,105,B2
3,91.7,B3
4,96,B4
5,10.6,B5

# Target: T1, cMetECDHis
# Test: cross-block ELISA; competitor 024
# Protocol: as §1, §2
row,"residual binding, % of no competitor [%]",Binder
1,12.9,B1
2,102,B2
3,6.6,B3
4,4.3,B4
5,121,B5

# Target: T1, cMetECDHis
# Test: BLI (Octet); antibody captured, cMetECDHis in solution
# Protocol: Antibody binding to cMetECDHis was analyzed by means of Bio-Layer Interferometry (BLI) technology on the Octet System (Fortebio, Menlo Park, USA). Anti-human IgG coated biosensors (Fc-specific) were used to capture anti-c-Met antibodies according to the procedure recommended by the manufacturer. cMetECDHis derived from HEK293 cells was loaded on top of the immobilized anti-c-Met antibodies by placing the loaded biosensor into a well containing 10 μg/mL cMetECDHis diluted in 10 times diluted kinetics buffer (Fortebio). The difference in reflection of light (AA, nm) of the biosensor surface due to the binding of cMetECDHis was measured in real time during approximately 10 minutes and was used by the Octet software (V4.0, Fortebio) to calculate the association constant (kₐ [1/M×s]). Next, the loaded biosensor was placed into a well containing only kinetics buffer (10 times diluted in PBS) to determine the dissociation constant (kd [1/s]). Kinetics analysis was performed to determine the affinity (KD [M]) using model 1:1 (langmuir). As a positive control, 0.2 μg/mL 5D5 IgG1 produced in HEK293 cells, was used.
Kd [nM],koff [s⁻¹],kon [M⁻¹ s⁻¹],Binder
1.82,0.000297,164000,B1
2.87,0.00207,721000,B2
1.26,0.000267,212000,B3
2.23,0.000531,237000,B4
13.9,0.00368,264000,B5

# Target: T1, cMetECDHis
# Test: cross-block ELISA; competitor 008
# Protocol: as §1, §2
row,"residual binding, % of no competitor [%]",Binder
1,99.8,B1
2,98.5,B2
3,102,B3
4,98.7,B4
5,7.2,B5

# Target: T1, cMetECDHis
# Test: cross-block ELISA; competitor 062
# Protocol: as §1, §2
row,"residual binding, % of no competitor [%]",Binder
1,8.8,B1
2,103,B2
3,2.2,B3
4,2,B4
5,120,B5
